Measurements: US10323078B2, “Isolated peptides and fragments thereof from fibrinogen for use as drugs, particularly in skin inflammatory diseases” (Universite Paris Descartes, priority 2015, dated 2019)

Assays:
Format in all cases: cell-based, human
HaCaT cells = experiment: H2O2 production by P. acnes-stimulated HaCaT (spectrofluorimetry, H2-DCFDA); conditions: bacteria first pretreated, 0.87 to 7 μM
Procedure: (§1) For experiences of stimulation with P. acnes, cells were incubated with the P. acnes suspension adjusted at the appropriate concentration, pre-treated for 1 h at 37° C. or not with fibrinogen recombinant peptides Fg1 and Fg2 at the concentrations 0.87, 1.75, 3.5 or 7 μM for the desired period of time at 37° C. in 5% CO2.
(§2) All cells lines (5·10^4 to 10^5 cells/well) were seeded in 96-well plates (Corning Costar, Brumath, France) and treated as previously described. After stimulation, cells were washed three times in PBS and incubated with 100 μl per wells of 5 μM DHE (for determination of O2^●−) or 5 μM H2-DCFDA (for determination of H2O2) for 30 min as described previously and fluorescence intensity was recorded every hour over a period of 5 h. Fluorescence excitation/emission maxima were for DHE: 480/610 nm and for H2-DCFDA: 507/525 nm. At the end of the experiment, the number of adherent cells was evaluated by the crystal violet assay as described below. O2^●−, and H2O2 were assayed by spectrofluorimetry on a Fusion spectrofluorimeter (PackardBell, Paris, France). Levels of ROS were calculated in each sample as follows: reactive oxygen species rate (arbitrary units/min/10^6 cells)=(fluorescence intensity [arbitrary units] at T5h—fluorescence intensity [arbitrary units] at To/300 minutes/number of adherent cells as measured by the crystal violet assay, and were expressed as arbitrary unit (A.U.).
(§3) To assess the efficacy of Fg1 recombinant peptide, the production of O2^∘− and H2O2 by HaCaT cells NHDK, THP-1, MRC5 and HDF stimulated by pretreated P. acnes strains 6919, RON and PIE was measured. The amount of ROS produced was compared to that produced by the stimulated cells with untreated bacteria. Production baseline was obtained by measuring ROS on unstimulated cells. The production of IL-1ß, IL-8, IL-12 and TNF-α was also measured in all conditions cited above. The measurement of the production of ROS is performed by spectrofluorimetry in the presence of specific fluorochromes directly on the monolayer cell. Measurement of cytokine production was performed in parallel on the cell culture supernatant.
(§4) Two sets of experiments were implemented: 1) The cells were stimulated (18 h at 37° C.) by P. acnes strains previously pretreated with Fg1 and Fg2 peptides at the final concentrations ranging from 0.87 to 7 μM for 1 h at 37° C.; and 2) The cells were pretreated first with Fg1 and Fg2 peptides at the final concentrations ranging from 0.87 to 7 μM for 24 h at 37° C. and stimulated (18 h at 37° C.) by P. acnes strains.
(§5) To assess the efficacy of the small Fg1-related peptide, the production of H2O2 by several cell lines (HaCaT, NHDK, THP-1, MRC5 and HDF) stimulated by three P. acnes strains 6919, RON and PIE was measured, in presence or not with the small peptides. The amount of H2O2 produced is compared to that produced by the stimulated cells with untreated bacteria. Production baseline is obtained by measuring H2O2 on unstimulated cells. The measurement of the production of H2O2 is performed by spectrofluorimetry in the presence of specific fluorochromes directly on the monolayer cell.
(§6) Two sets of experiments have been implemented: • I) The cells are stimulated (18 h at 37° C.) by P. acnes strains previously pretreated with Fg1.1, Fg1.2, Fg1.3, Fg1.4, and Fg1.5 small peptides at the final concentrations ranging from 2.5 to 20 μM for 1 h at 37° C.; • II) The cells are pretreated first with the five small peptides at the final concentrations ranging from 2.5 to 20 μM for 24 h at 37° C. and stimulated (18 h at 37° C.) by P. acnes strains.

NHDK cells [1] = experiment: H2O2 production by P. acnes-stimulated NHDK; conditions: 0.87 to 7 μM
Procedure: as §1, §2, §3, §4, §5, §6

NHDK cells [2] = experiment: IL-8 production by keratinocytes stimulated by peptidoglycanne (PGN); conditions: NHDK pre-treated 24 h with 1.75 to 7 μM, then PGN 10 μg/ml
Procedure: FIG. 19: Dose-dependent inhibition of IL-8 production by keratinocyte pre-treated by small Fg1-generated peptides and stimulated by peptidoglycanne (PGN). NHDK cell were incubated for 24 h with recombinant peptide Fg1 (light gray bar) and Fg2 (dark gray bar) at concentrations ranging from 1.75 to 7 μM. Measurement of IL-8 production was realized by ELISA as described in Materials and Methods. Controls experiments were done with unstimulated NHDK cell (white bar) and HDF stimulated with PGN at 10 μg/ml (black bar). Data are means±S.D. of three separate experiments. Statistical significance is indicated by * (P<0.05), ** (P<0.01), *** (P<0.001), and **** (P<0.0001), respectively. […]
Human IL-1ß, IL-8, IL-12, hBD-2, and TNF-α protein concentration was measured in the supernatants of stimulated cells using various ELISA Set kits (Ready-Set-Go kit from eBioscience for acne experiments, and for psoriasis experiments the Duo set IL-8 kit from R&D Systems and the BD-2 Human Development (hBD-2) from Peprotech) according to the manufacturer's instructions. […] The optical density was determined at 450 nm at a wavelength correction of 540 nm.
The production of IL-8 was also measured NHDK cells stimulated by LTA, LPS and PGN, in presence or not of Fg1 or Fg2. […]

HDF cells = experiment: H2O2 production by P. acnes-stimulated HDF; conditions: 0.87 to 7 μM
Procedure: as §1, §2, §3, §4, §5, §6

ThP1 cells = experiment: H2O2 production by P. acnes-stimulated ThP1; conditions: 0.87 to 7 μM
Procedure: as §1, §2, §3, §4, §5, §6

NHDK cells [3] = experiment: IL-12 production by P. acnes-stimulated NHDK (ELISA); conditions: P. acnes RON, set I, bacteria first pretreated, 0.87 to 7 μM
Procedure: as §1
Human IL-1ß, IL-8, IL-12, hBD-2, and TNF-α protein concentration was measured in the supernatants of stimulated cells using various ELISA Set kits (Ready-Set-Go kit from eBioscience for acne experiments, and for psoriasis experiments the Duo set IL-8 kit from R&D Systems and the BD-2 Human Development (hBD-2) from Peprotech) according to the manufacturer's instructions. We used serial dilutions of recombinant human IL-1ß, IL-8, IL-12 and TNF-α for standard curve. The optical density was determined at 450 nm at a wavelength correction of 540 nm.
as §3, with “The measurement of the production of ROS is performed by spectrofluorimetry in the presence of specific fluorochromes directly on the monolayer cell. Measurement of cytokine production was performed in parallel on the cell culture supernatant.” left out

[4] = P. acnes 6919, set I, bacteria first pretreated
[5] = P. acnes 6919, set II, cells first pretreated
[6] = P. acnes PIE, set I, bacteria first pretreated
[7] = P. acnes PIE, set II, cells first pretreated
[8] = P. acnes RON, set I, bacteria first pretreated
[9] = P. acnes RON, set II, cells first pretreated

B1: MKRMVSWSFHKLKTMKHLLLLLLCVFLVKSQGVNDNEEGFFSARGHRPLDKKREEAPSLRPAPPPISGGGYRARPAKAAATQKKVERKAPDAGGCLHADPDLGVLC (protein)
chain: MKRMVSWSFHKLKTMKHLLLLLLCVFLVKSQGVNDNEEGFFSARGHRPLDKKREEAPSLRPAPPPISGGGRARPAKAAATQKKVERKAPDAGGCLHADPDLGVLCMKRMVSWSFHKLKTMKHLLLLLLCVFLVKSQGVNDNEEGFFSARGHRPLDKKREEAPSLRPAPPPISGGGYRARPAKAAATQKKVERKAPDAGGCLHADPDLGVLC
modifications: GST fusion; fragment Fg1
notes: fragment of Bß chain of human fibrinogen having 106 amino acids; recombinant GST-fused peptide expressed in E. coli
For B1, the “Inhibition of Hydrogen peroxide (H2O2) production” value (“Inhibition of Hydrogen peroxide” for short) (HaCaT cells; P. acnes 6919, set I) was “pos”, the “Inhibition of Hydrogen peroxide” value (HaCaT cells; P. acnes PIE, set I) was “pos” and the “Inhibition of Hydrogen peroxide” value (HaCaT cells; P. acnes RON, set I) was “pos”. The “Inhibition of Hydrogen peroxide” value (NHDK cells [1]; [4]) was “pos”, the “Inhibition of Hydrogen peroxide” value (NHDK cells [1]; [5]) was “pos” and the “Inhibition of Hydrogen peroxide” value (NHDK cells [1]; [6]) was “pos”. For the same molecule, the “Inhibition of Hydrogen peroxide” value (NHDK cells [1]; [7]) was “pos”, the “Inhibition of Hydrogen peroxide” value (NHDK cells [1]; [8]) was “pos” and the “Inhibition of Hydrogen peroxide” value (NHDK cells [1]; [9]) was “pos”. For the same molecule, the “Decrease of IL-8 production by PGN-stimulated cells” value (NHDK cells [2]) was “significantly decreases production of IL-8”, the “Inhibition of Hydrogen peroxide” value (HDF cells; [4]) was “pos” and the “Inhibition of Hydrogen peroxide” value (HDF cells; [5]) was “pos”. For the same molecule, the “Inhibition of Hydrogen peroxide” value (HDF cells; [6]) was “pos”, the “Inhibition of Hydrogen peroxide” value (HDF cells; [7]) was “pos” and the “Inhibition of Hydrogen peroxide” value (HDF cells; [8]) was “pos”. The “Inhibition of Hydrogen peroxide” value (HDF cells; [9]) was “pos”, the “Inhibition of Hydrogen peroxide” value (ThP1 cells; [4]) was “pos” and the “Inhibition of Hydrogen peroxide” value (ThP1 cells; [5]) was “pos”. The “Inhibition of Hydrogen peroxide” value (ThP1 cells; [6]) was “pos”, the “Inhibition of Hydrogen peroxide” value (ThP1 cells; [7]) was “pos” and the “Inhibition of Hydrogen peroxide” value (ThP1 cells; [8]) was “pos”. For the same molecule, the “Inhibition of Hydrogen peroxide” value (ThP1 cells; [9]) was “pos” and the “Inhibition of Interleukine 12 (IL-12) production” value (NHDK cells [3]) was “pos”.
